Data: paper PMC6404747

Molecular target: Smurf (UniProt Q9V853)
Experiment: co-IP Myc-Smo / Fg-Smurf
Conditions: reference: wild-type Myc-Smo plus Hh; sites S667,S687,S740

- binding against the reference: stronger
Substance: Smoothened (Smo) (from UniProt P91682) Myc-SmoSA plus Hh
